Consider four variants from IntAct's records for PubMed 11731480.

The chains are these.
B1: Histone acetyltransferase SAS2 (Saccharomyces cerevisiae), P40963 (parent)
chain: MARSLSQSLTATTQKLKGKKNGGKGKNKPSAKIKKTQKEMLYGILNERNIRQIQFGLNKKFSTWYGSAVYFDPETKRLGCSETKGQLSSVSNSQYWLDTLFVCEYCFKYTDDQTRFVGHVASCPFQYRVPGKIKYKSPEYTIRRVKGSKYQLFCQCLCLFTKLYLDNKSMYFKVDHYEFYIVYETGSTKPMGFFSKDLVSYQQNNLACILIFPPYQRRGLGLLLIEFSYKLSQLEGVISGPEVPLSPFGLIGYLKYWSQILCWHLIEGDLAHYDKVTLEDLSIVTGMRVNDVILTLKHLNCIGENNQIYLQSLNSWLKLHGTKRNWFKLKDEYLLIDD
partner: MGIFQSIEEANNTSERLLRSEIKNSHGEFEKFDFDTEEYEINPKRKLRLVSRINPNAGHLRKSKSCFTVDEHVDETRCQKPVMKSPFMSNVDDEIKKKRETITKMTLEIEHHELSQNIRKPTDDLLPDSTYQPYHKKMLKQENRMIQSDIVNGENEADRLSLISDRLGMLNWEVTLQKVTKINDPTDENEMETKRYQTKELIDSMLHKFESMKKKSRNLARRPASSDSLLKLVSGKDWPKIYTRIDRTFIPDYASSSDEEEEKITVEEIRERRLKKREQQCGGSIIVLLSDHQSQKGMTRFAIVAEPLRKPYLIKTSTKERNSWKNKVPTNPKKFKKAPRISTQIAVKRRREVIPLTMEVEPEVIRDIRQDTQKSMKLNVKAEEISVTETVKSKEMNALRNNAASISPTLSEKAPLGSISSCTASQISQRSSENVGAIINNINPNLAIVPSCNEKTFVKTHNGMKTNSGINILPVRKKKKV
B2: Histone acetyltransferase SAS2 (Saccharomyces cerevisiae), P40963 (parent)
chain: B1 chain

The variants in one assay derive from B1. As to conditions: with sas4_yeast SAS4, Q04003.
Regarding MARSLSQSLTATTQKLKGKKNGGKGKNKPSAKIKKTQKEMLYGILNERNIRQIQFGLNKKFSTWYGSAVYFDPETKRLGCSETKGQLSSVSNSQYWLDTLFVCEYLFKYTDDQTRFVGHVASCPFQYRVPGKIKYKSPEYTIRRVKGSKYQLFCQCLCLFTKLYLDNKSMYFKVDHYEFYIVYETGSTKPMGFFSKDLVSYQQNNLACILIFPPYQRRGLGLLLIEFSYKLSQLEGVISGPEVPLSPFGLIGYLKYWSQILCWHLIEGDLAHYDKVTLEDLSIVTGMRVNDVILTLKHLNCIGENNQIYLQSLNSWLKLHGTKRNWFKLKDEYLLIDD [C106L], the “effect of a mutation on the interaction” value was “decreasing interaction”.

Take MARSLSQSLTATTQKLKGKKNGGKGKNKPSAKIKKTQKEMLYGILNERNIRQIQFGLNKKFSTWYGSAVYFDPETKRLGCSETKGQLSSVSNSQYWLDTLFVCEYCFKYTDDQTRFVGHVASCPFQYRVPGKIKYKSPEYTIRRVKGSKYQLFCQCLCLFTKLYLDNKSMYFKVDHYEFYIVYETGSTKPMGFFSKDLVSYQQNNLACILIFAVYQRRGLGLLLIEFSYKLSQLEGVISGPEVPLSPFGLIGYLKYWSQILCWHLIEGDLAHYDKVTLEDLSIVTGMRVNDVILTLKHLNCIGENNQIYLQSLNSWLKLHGTKRNWFKLKDEYLLIDD [P213A;P214V]: the “effect of a mutation on the interaction” value was “decreasing interaction”.

In a further assay the parent is B2. As to conditions: with caf1a_yeast RLF2, Q12495.
Sequence of caf1a_yeast RLF2, Q12495 (Q12495 whole entry): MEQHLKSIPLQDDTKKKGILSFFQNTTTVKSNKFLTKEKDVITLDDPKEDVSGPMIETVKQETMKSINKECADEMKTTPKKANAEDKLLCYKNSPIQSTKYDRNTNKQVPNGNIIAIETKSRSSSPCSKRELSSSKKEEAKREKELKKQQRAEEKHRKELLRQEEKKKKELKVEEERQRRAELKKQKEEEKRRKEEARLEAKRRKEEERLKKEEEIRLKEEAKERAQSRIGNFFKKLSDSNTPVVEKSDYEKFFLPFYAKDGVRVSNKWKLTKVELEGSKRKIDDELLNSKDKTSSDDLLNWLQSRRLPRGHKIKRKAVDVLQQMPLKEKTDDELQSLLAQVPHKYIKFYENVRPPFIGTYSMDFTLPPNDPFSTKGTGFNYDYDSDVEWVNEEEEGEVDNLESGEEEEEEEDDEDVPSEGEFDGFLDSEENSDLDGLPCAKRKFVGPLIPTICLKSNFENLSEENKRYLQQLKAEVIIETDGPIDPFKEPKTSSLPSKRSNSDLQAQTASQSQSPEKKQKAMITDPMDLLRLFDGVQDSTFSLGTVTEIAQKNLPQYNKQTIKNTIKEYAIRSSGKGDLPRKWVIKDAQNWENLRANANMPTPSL
As for MARSLSQSLTATTQKLKGKKNGGKGKNKPSAKIKKTQKEMLYGILNERNIRQIQFGLNKKFSTWYGSAVYFDPETKRLGCSETKGQLSSVSNSQYWLDTLFVCEYLFKYTDDQTRFVGHVASCPFQYRVPGKIKYKSPEYTIRRVKGSKYQLFCQCLCLFTKLYLDNKSMYFKVDHYEFYIVYETGSTKPMGFFSKDLVSYQQNNLACILIFPPYQRRGLGLLLIEFSYKLSQLEGVISGPEVPLSPFGLIGYLKYWSQILCWHLIEGDLAHYDKVTLEDLSIVTGMRVNDVILTLKHLNCIGENNQIYLQSLNSWLKLHGTKRNWFKLKDEYLLIDD [C106L], the “effect of a mutation on the interaction” value is “decreasing interaction”.

Take MARSLSQSLTATTQKLKGKKNGGKGKNKPSAKIKKTQKEMLYGILNERNIRQIQFGLNKKFSTWYGSAVYFDPETKRLGCSETKGQLSSVSNSQYWLDTLFVCEYCFKYTDDQTRFVGHVASCPFQYRVPGKIKYKSPEYTIRRVKGSKYQLFCQCLCLFTKLYLDNKSMYFKVDHYEFYIVYETGSTKPMGFFSKDLVSYQQNNLACILIFAVYQRRGLGLLLIEFSYKLSQLEGVISGPEVPLSPFGLIGYLKYWSQILCWHLIEGDLAHYDKVTLEDLSIVTGMRVNDVILTLKHLNCIGENNQIYLQSLNSWLKLHGTKRNWFKLKDEYLLIDD [P213A;P214V]: the “effect of a mutation on the interaction” value is on record as “decreasing interaction”.
